Holding throughout (experiment): cell-based or functional assay
Experiment [1] has as its target T1, CD33 on leukemia cell lines (HL-60, MOLM-13, KG-1, K-562) (UniProt P20138 18-364, limits assumed).
Experiment [2] concerns the target T1, CD33 on leukemia cell lines (HL-60, …). The source holds these as a separate data set.
The target is the same in experiment [3]. This is another data set of the same source.
In experiment [4] the target is T2, TYRP1 antigen on human melanoma cells (IGR-1, SK-MEL-30, SK-MEL-28) (human, UniProt P17643 25-537).
Experiment [5] has as its target T2, TYRP1 antigen on human melanoma cells …. This is another data set of the same source.
The target is the same in experiment [6]. This is another data set of the same source.
Experiment [7] has the same target. The source holds these as a separate data set.
Experiment [8] has the same target. The source holds these as a separate data set.
Experiment [9] shares this target. The source holds these as a separate data set.

Like-named read-outs stand apart in the source and are kept apart here.

T1 sequence (P20138 18-364 limits assumed): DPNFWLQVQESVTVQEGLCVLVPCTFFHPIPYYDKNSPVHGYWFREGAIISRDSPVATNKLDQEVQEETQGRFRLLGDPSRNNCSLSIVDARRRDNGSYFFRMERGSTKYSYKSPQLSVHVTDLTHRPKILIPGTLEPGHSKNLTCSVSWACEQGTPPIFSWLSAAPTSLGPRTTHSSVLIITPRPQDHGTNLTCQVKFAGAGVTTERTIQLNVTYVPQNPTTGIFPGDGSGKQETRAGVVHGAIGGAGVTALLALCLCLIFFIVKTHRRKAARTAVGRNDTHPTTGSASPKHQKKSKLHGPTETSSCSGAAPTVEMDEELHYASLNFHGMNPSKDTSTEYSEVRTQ

B1: LNCAuM (cysteine engineered lintuzumab HC N296C-maleimidoacetyl-β-Ala-Val-Ser(Glc)-PAB-MMAU), DAR 1.7 (antibody, human IgG1, kappa, V domains shown)
VH: QVQLVQSGAEVKKPGSSVKVSCKASGYTFTDYNMHWVRQAPGQGLEWIGYIYPYNGGTGYNQKFKSKATITADESTNTAYMELSSLRSEDTAVYYCARGRPAMDYWGQGTLVTVSS
VL: DIQMTQSPSSLSASVGDRVTITCRASESVDNYGISFMNWFQQKPGKAPKLLIYAASNQGSGVPSRFSGSGSGTDFTLTISSLQPDDFATYYCQQSKEVPWTFGQGTKVEIKR
modifications: AuM linker-payload (maleimidoacetyl-β-Ala-Val-Ser(Glc)-PAB-MMAU) on the engineered cysteine (N296C); DAR 1.7
Take B1: the “IC50, cytotoxicity, HL-60 cells, 5 days” value in experiment [1] was found to be 16 nM.

B2: LNCAuMb (cysteine engineered lintuzumab HC N296C conjugated with branched N-MAL-N-bis(Peg2)-Val-Ser(Glc)-PAB-MMAU), DAR 3.3 (antibody, human IgG1, kappa, V domains shown)
VH: B1 VH
VL: B1 VL
modifications: branched AuMb linker-payload (N-MAL-N-bis(Peg2)-Val-Ser(Glc)-PAB-MMAU) on the engineered cysteine (N296C); DAR 3.3
With B2, the “IC50, cytotoxicity, HL-60 cells, 5 days” value in [2] worked out at 2.2 nM.

B3: GMAuM (gemtuzumab-maleimidoacetyl-β-Ala-Val-Ser(Glc)-PAB-MMAU), DAR 8 (antibody, human IgG4 S228P, kappa, V domains shown)
VH: EVQLVQSGAEVKKPGSSVKVSCKASGYTITDSNIHWVRQAPGQSLEWIGYIYPYNGGTDYNQKFKNRATLTVDNPTNTAYMELSSLRSEDTAFYYCVNGNPWLAYWGQGTLVTVSS
VL: DIQLTQSPSTLSASVGDRVTITCRASESLDNYGIRFLTWFQQKPGKAPKLLMYAASNQGSGVPSRFSGSGSGTEFTLTISSLQPDDFATYYCQQTKEVPWSFGQGTKVEVKR
modifications: AuM linker-payload on reduced interchain cysteine; AuM linker-payload (maleimidoacetyl-β-Ala-Val-Ser(Glc)-PAB-MMAU) on reduced interchain cysteines; DAR 8.0 in all
Take B3: in [3], the “IC50, cytotoxicity, HL-60 cells, 5 days” value was found to be 0.583 nM; the “IC50, cytotoxicity, K-562 (low CD33) cells, 3 days” value was 241 nM; the “IC50, cytotoxicity, MOLM-13 cells, 3 days” value worked out at 0.206 nM.

B4: FLCPeMcv (cysteine engineered flanvotumab HC N299C conjugated with MA-caproyl-Val-Cit-PAB-EDA-PNU), DAR 1.4 (antibody, human IgG1, kappa)
heavy: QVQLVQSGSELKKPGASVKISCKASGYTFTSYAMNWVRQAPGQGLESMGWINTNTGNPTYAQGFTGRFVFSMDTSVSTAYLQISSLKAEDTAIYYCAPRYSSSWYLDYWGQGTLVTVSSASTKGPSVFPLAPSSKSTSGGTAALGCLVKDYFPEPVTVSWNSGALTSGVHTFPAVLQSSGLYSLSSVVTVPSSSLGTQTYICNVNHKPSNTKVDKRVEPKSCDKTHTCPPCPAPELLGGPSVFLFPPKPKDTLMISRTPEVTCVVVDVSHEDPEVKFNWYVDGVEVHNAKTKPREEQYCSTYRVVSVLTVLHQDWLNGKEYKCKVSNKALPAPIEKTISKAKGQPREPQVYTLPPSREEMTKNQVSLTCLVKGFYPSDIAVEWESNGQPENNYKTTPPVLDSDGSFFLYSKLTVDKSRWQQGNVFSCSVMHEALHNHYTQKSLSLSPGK
light: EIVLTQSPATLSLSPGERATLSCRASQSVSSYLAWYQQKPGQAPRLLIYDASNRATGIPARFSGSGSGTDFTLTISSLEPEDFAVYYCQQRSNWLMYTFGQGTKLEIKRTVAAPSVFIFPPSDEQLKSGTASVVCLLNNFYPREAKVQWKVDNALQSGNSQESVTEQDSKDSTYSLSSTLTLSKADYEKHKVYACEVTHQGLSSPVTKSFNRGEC
modifications: PeMcv linker-payload (MA-caproyl-Val-Cit-PAB-EDA-PNU) on the engineered cysteine (N299C); DAR 1.4
B4: in experiment [4], the “IC50, cell viability (PrestoBlue), IGR-1 cells” value (shortened to “IC50 … IGR-1 cells”) fell in the range of 0.414 to 0.716 nM and the “IC50, cell viability (PrestoBlue), SK-MEL-30 cells” value (“IC50 … SK-MEL-30 cells” for short) was 2.8 to 4 nM.

B5: FLCPeMa (cysteine engineered flanvotumab HC N299C conjugated with MA-Ac-EDA-PNU), DAR 1.7 (antibody, human IgG1, kappa)
heavy: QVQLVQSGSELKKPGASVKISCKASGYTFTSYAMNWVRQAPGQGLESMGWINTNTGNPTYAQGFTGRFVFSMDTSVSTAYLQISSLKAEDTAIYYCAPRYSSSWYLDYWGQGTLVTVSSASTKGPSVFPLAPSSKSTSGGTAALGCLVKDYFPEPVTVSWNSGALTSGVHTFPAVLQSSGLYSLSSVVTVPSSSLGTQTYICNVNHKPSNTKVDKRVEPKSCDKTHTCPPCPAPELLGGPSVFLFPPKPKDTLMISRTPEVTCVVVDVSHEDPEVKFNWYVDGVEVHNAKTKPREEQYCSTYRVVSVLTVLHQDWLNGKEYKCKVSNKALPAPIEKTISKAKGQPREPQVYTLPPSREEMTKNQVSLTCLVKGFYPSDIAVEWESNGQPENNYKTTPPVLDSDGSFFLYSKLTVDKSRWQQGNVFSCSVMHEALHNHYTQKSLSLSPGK
light: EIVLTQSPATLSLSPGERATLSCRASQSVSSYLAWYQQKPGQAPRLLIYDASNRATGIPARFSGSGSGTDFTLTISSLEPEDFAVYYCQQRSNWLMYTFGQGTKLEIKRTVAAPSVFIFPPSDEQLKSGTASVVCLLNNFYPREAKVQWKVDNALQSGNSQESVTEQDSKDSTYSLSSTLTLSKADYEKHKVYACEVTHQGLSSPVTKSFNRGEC
modifications: PeMa linker-payload (maleimidoacetyl-EDA-PNU) on the engineered cysteine (N299C); DAR 1.7
As to B5, in experiment [5], the “IC50 … IGR-1 cells” value worked out at 1.2 nM and the “IC50 … SK-MEL-30 cells” value is 22 nM.

B6: FLCPeMala (cysteine engineered flanvotumab HC N299C conjugated with MA-Ac-β-Ala-EDA-PNU), DAR 2.0 (antibody, human IgG1, kappa)
heavy: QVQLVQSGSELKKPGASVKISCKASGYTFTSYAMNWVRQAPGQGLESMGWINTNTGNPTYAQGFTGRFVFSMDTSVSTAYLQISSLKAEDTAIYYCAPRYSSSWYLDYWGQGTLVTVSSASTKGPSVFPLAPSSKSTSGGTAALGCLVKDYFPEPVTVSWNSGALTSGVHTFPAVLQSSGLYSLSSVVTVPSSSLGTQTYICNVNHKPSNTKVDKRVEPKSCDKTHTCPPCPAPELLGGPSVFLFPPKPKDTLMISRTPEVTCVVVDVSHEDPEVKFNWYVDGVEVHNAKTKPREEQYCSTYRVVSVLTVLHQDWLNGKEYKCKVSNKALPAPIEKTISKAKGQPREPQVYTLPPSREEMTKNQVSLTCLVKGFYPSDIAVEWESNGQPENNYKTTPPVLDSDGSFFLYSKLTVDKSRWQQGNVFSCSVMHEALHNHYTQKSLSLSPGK
light: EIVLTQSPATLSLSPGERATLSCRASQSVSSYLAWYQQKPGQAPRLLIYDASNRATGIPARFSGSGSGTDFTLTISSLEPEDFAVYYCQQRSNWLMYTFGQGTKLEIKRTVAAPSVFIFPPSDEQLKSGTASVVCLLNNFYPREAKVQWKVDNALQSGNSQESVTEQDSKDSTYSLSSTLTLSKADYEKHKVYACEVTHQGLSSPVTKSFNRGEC
modifications: PeMala linker-payload (maleimidoacetyl-β-Ala-EDA-PNU) on the engineered cysteine (N299C); DAR 2.0
Consider B6, for which the “IC50 … IGR-1 cells” value in experiment [6] was 0.649 nM.

B7: FLCPeMg (cysteine engineered flanvotumab HC N299C conjugated with MA-Ac-β-Ala-VS(GlcA)-EDA-PNU), DAR 2.2 (antibody, human IgG1, kappa)
heavy: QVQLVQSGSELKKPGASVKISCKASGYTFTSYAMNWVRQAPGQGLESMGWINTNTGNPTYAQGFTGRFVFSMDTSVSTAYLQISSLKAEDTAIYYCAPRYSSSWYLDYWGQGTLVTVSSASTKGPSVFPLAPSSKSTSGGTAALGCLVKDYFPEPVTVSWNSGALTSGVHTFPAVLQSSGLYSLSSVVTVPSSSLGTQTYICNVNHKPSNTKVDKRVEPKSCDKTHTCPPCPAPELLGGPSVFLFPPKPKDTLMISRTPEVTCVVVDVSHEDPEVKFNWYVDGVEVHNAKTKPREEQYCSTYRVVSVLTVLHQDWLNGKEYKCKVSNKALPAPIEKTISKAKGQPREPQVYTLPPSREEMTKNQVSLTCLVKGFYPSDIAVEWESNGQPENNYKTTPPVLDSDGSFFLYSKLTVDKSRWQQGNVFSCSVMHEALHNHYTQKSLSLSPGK
light: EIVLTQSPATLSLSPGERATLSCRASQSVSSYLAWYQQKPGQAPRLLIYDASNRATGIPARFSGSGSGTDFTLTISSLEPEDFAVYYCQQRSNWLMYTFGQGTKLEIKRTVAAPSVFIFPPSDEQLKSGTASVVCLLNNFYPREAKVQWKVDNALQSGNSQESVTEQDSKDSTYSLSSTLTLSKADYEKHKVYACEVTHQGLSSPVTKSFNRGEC
modifications: PeMg linker-payload (maleimidoacetyl-β-Ala-Val-Ser(GlcA)-EDA-PNU) on the engineered cysteine (N299C); DAR 2.2
Take B7: in experiment [7], the “IC50 … IGR-1 cells” value was 0.417 to 0.484 nM and the “IC50 … SK-MEL-30 cells” value lay within 4.3 to 10 nM.

B8: CHPeD (glycoconjugated chimeric TA99-DBCO-Val-Ser(GlcA)-EDA-PNU ADC), DAR 2 (antibody, human IgG1, kappa, V domains shown)
VH: EVQLQQSGAELVRPGALVKLSCKTSGFNIKDYFLHWVRQRPDQGLEWIGWINPDNGNTVYDPKFQGTASLTADTSSNTVYLQLSGLTSEDTAVYFCTRRDYTYEKAALDYWGQGTTVTVST
VL: IQMSQSPASLSASVGETVTITCRASGNIYNYLAWYQQKQGKSPHLLVYDAKTLADGVPSRFSGSGSGTQYSLKISSLQTEDSGNYYCQHFWSLPFTFGSGTKLEIKR
modifications: DBCO-Val-Ser(GlcA)-EDA-PNU on GalNAz of the trimmed Fc N-glycan; DAR 2
As to B8, in experiment [8], the “IC50 … IGR-1 cells” value came to 1.4 nM; the “IC50, cell viability (PrestoBlue), SK-MEL-28 cells” value is 55 nM; the “IC50 … SK-MEL-30 cells” value amounted to 5.7 nM.

B9: CHAuM (chimeric TA99-maleimidoacetyl-β-Ala-Val-Ser(Glc)-PAB-MMAU), DAR 6 (antibody, human IgG1, kappa, V domains shown)
VH: B8 VH
VL: B8 VL
modifications: AuM linker-payload on reduced interchain cysteine; AuM linker-payload (maleimidoacetyl-β-Ala-Val-Ser(Glc)-PAB-MMAU) on reduced interchain cysteines; DAR 6 in all
On to B9, for which, in experiment [9], the “IC50 … IGR-1 cells” value is 2.2 nM; the “IC50, cell viability (PrestoBlue), SK-MEL-28 cells” value is above 300 nM; the “IC50 … SK-MEL-30 cells” value was 48 nM.

Source of the values: patent US20250161478A1 (GLYKOS FINLAND, published 2025).
